Results published in patent US8106168B2, “Metalloproteinase binding proteins” (Dyax Corp., priority 2005, dated 2012).

B1: M0040-A03: Fab that binds human MMP-14; DNA LV SEQ ID NO: 80, HV SEQ ID NO: 81 (antibody, V domains shown)
VL: QDIQMTQSPSFVSASVGDRVTISCRASHNINTWLAWYQQKPGKAPNLLIYSASNLQGGVPSRFSGSGSGTDFTLTISSLQPGDFATYYCQQASSFPITFGQGTRLEIK
VH: EVQLLESGGGLVQPGGSLRLSCAASGFTFSNYMMIWVRQAPGKGLEWVSWISPSGGYTFYADSVKGRFTISRDNSKNTLYLQMNSLRAEDTAVYYCARGYYDILTGMVGGGAFDIWGQGTTVTVSS
modifications: Synthetically generated oligonucleotide
B2: M0030-D08: Fab that binds human MMP-14; DNA LV SEQ ID NO: 8, HV SEQ ID NO: 9 (antibody, V domains shown)
VH: EVQLLESGGGLVQPGGSLRLSCAASGFTFSIYQMYWVRQAPGKGLEWVSSIVPSGGLTKYADSVKGRFTISRDNSKNTLYLQMNSLRAEDTAVYYCARERLRYFDWSDRVGESGDYWGQGTLVTVSS
VL: QDIQMTQSPSSLSASVGDRVTMTCRAGQNIKSYLNWYQQKPGKAPQVLIYAASTLQSGVSSRFRGSGSGTHFTLTISDLQPGDSATYYCQQSFSTPRSFGQGTSWRS
B3: M0040-D08: Fab that binds human MMP-14; DNA LV SEQ ID NO: 94, HV SEQ ID NO: 95 (antibody, V domains shown)
VL: QSALTQSPSASASLGSSVKLTCTLASEHSGYIIAWHQQQPGKAPRFLMKLDGTGNFNKGSGVPDRFSGYSSGADRYLTISNLQSEDEADYYCETWDSTTLWVFGGGTKLTVL
VH: EVQLLESGGGLVQPGGSLRLSCAASGFTFSHYGMTWVRQAPGKGLEWVSSIVPSGGYTAYADSVKGRFTISRDNSKNTLYLQMNSLRAEDTAVYYCTTGLSSSGTRWFDAWGQGTLVTVSS
modifications: Synthetically generated oligonucleotide
B4: M0038-E12: Fab that binds human MMP-14; DNA LV SEQ ID NO: 60, HV SEQ ID NO: 61 (antibody, V domains shown)
VL: QDIQMTQSPSSLSASVGDSVTITCRASQNINSYLNWYQQKPGKAPKLLIYVASNLQRGVPSRFGGSGSGTDFTLTITSLQPEDFATYSCQQTYSTPLTFGGGTKVEIK
VH: EVQLLESGGGLVQPGGSLRLSCAASGFTFSKYWMMWVRQAPGKGLEWVSVIYPSGGITYYADSVKGRFTISRDNSKNTLYLQMNSLRAEDTAVYYCARLPSWGFDALDIWGQGTMVTVSS
modifications: Synthetically generated oligonucleotide
B5: M0040-B06: Fab that binds human MMP-14; DNA LV SEQ ID NO: 88, HV SEQ ID NO: 89 (antibody, V domains shown)
VL: QYELTQPPSASGTPGQRVTISCSGSSSNIGRNYVYWYQQVPGTAPKLLIYSNNQRPSGVPDRFSGSKSGTSASLVISGLRSEDEADYYCAAWDASLRGVFGGGTKLTVL
VH: EVQLLESGGGLVQPGGSLRLSCAASGFTFSVYPMVWVRQAPGKGLEWVSYISPSGGFTFYADSVKGRFTISRDNSKNTLYLQMNSLRAEDTAVYYCARVPGGSRQDFDIWGQGTMVTVSS
modifications: Synthetically generated oligonucleotide
B6: M0038-H06: Fab that binds human MMP-14; DNA LV SEQ ID NO: 66, HV SEQ ID NO: 67 (antibody, V domains shown)
VL: QDIQMTQSPGTLSLSPGEGATLSCRASQIINPFYVAWYQQRPGQAPRLLIYASSRRAGGIPDRFSGSASGTDFTLTISRLEPEDFAVYYCQYFYNSMWTFGQGAKVEIR
VH: EVQLLESGGGLVQPGGSLRLSCAASGFTFSWYNMTWVRQAPGKGLEWVSRISPSGGDTFYADSVKGRFTISRDNSKNTLYLQMNSLRAEDTAVYYCARAAIAPRPYGMDVWGQGTTVTVSS
modifications: Synthetically generated oligonucleotide
B7: M0039-D10: Fab that binds human MMP-14; DNA LV SEQ ID NO: 72, HV SEQ ID NO: 73 (antibody, V domains shown)
VL: QDIQMTQSPDTVSFSPGERASLSCRASQSVRSDLAWYQQKPGQAPRLLIYGASNRATGIPVRFSGSGSGTDFTLTISRLEPEDFAVYYCQQYGSSPLFTFGPGTKVDIK
VH: EVQLLESGGGLVQPGGSLRLSCAASGFTFSMYNMAWVRQAPGKGLEWVSWIYSSGGLTLYADSVKGRFTISRDNSKNTLYLQMNSLRAEDTAVYYCAKGSNTYYFDASGLGAFNMWGQGTMVTVSS
modifications: Synthetically generated oligonucleotide
B8: M0039-D02: Fab that binds human MMP-14; DNA LV SEQ ID NO: 70, HV SEQ ID NO: 71 (protein)
chain 1: QDIQMTQSPSSLSASVGDRVTITCRASQSISSYLNWYQQKPGKAPKLLIYDASNLETGVPSRFSGSGSGTDFTFTISSLQPEDIATYYCQQFDDLPLTFAGGTKVELKRT
chain 2: EVQLLESGGGLVQPGGSLRLSCAASGFTFSLYVMIWVRQAPGKGLEWVSGIYSSGGDTYYADSVKGRFTISRDNSKNTLYLQMNSLRAEDTAVYYCARGQQLGGGAFDIWGQGTMVTVSS
modifications: Synthetically generated oligonucleotide
B9: M0039-B07: Fab that binds human MMP-14; DNA LV SEQ ID NO: 68, HV SEQ ID NO: 69 (antibody, V domains shown)
VL: QDIQMTQSPLSLSASVGDRVTITCRASQGISNYLAWYQQKPGKVPKLLIYAASTLQSGVPSRFSGSGSGTDFTLTISSLQPEDVATYYCQKYNSARLTFGGGTKVEIK
VH: EVQLLESGGGLVQPGGSLRLSCAASGFTFSLYPMLWVRQAPGKGLEWVSGISPSGGQTFYADSVKGRFTISRDNSKNTLYLQMNSLRAEDTAVYYCARMAYYSGYFDLWGRGTLVTVSS
modifications: Synthetically generated oligonucleotide
B10: M0039-G07: Fab that binds human MMP-14; DNA LV SEQ ID NO: 76, HV SEQ ID NO: 77 (antibody, V domains shown)
VL: QDIQMTQSPGTLSLSPGERATLSCRASQSVNSRFLAWYQQKPGQAPRLLIYSTSTRATGIPDRFSGSGSGTDFTLTISRLEPEDFAVYYCQRYGSSPTWTFGQGTKVEIK
VH: EVQLLESGGGLVQPGGSLRLSCAASGFTFSRYVMDWVRQAPGKGLEWVSRISPSGGHTDYADSVKGRFTISRDNSKNTLYLQMNSLRAEDTAVYYCARETVRGVYFDYWGQGTLVTVSS
modifications: Synthetically generated oligonucleotide
B11: M0040-C10: Fab that binds human MMP-14; DNA LV SEQ ID NO: 92, HV SEQ ID NO: 93 (antibody, V domains shown)
VL: QDIQMTQSPATLSASVGDRVTITCRASQTISTYLNWYQHKPGKAPELLIYAASSLQSGVPSRFSGSGSGTDFTLRISSLQPEDFATYYCQQSYTTPWTFGQGTKVEIK
VH: EVQLLESGGGLVQPGGSLRLSCAASGFTFSRYMMVWVRQAPGKGLEWVSSIVSSGGKTWYADSVKGRFTISRDNSKNTLYLQMNSLRAEDTAMYYCARWDWGPFDYWGQGTLVTVSS
modifications: Synthetically generated oligonucleotide
B12: M0039-G05: Fab that binds human MMP-14; DNA LV SEQ ID NO: 74, HV SEQ ID NO: 75 (antibody, V domains shown)
VL: QDIQMTQSPSFLSASIGDRVTITCRASQGINTFLAWYQQKPGIAPKLLIYAASTLQSGVPSRFSGSGSGTEFTLTISSLQPEDFATYYCQQLNGYRSFGQGTRLEMK
VH: EVQLLESGGGLVQPGGSLRLSCAASGFTFSNYEMGWVRQAPGKGLEWVSWIYSSGGYTSYADSVKGRFTISRDNSKNTLYLQMNSLRAEDTATYYCARDPYYYDSSGYYYYYYYYMDVWGKGTTVTVSS
modifications: Synthetically generated oligonucleotide

Target: MMP-14 (Homo sapiens, UniProt P50281)
Experiment: Selection and phage ELISA screening of anti-MMP-14 Fabs
Type: binding
Conditions: Fab from FAB310 phage display library
Experimental: Strategy I: A 100-fold excess of the FAB310 library (e.g., an amount of the library that should contain 100 copies of each library member) was depleted of streptavidin-binding antibodies by incubating the library with 200 μL of streptavidin beads for 1 hour at room temperature (RT) with rotation. 500 nM of biotinylated MMP-14 was coupled to streptavidin beads by incubation with 100 μL of streptavidin beads. The MMP-14 beads were then incubated with the streptavidin-depleted library for 1 hour at RT with rotation. The beads were then rinsed three times with 2% MTRIS/0.1% Tween, transferred to a fresh tube and washed an additional three times with 2% MTRIS/0.1% Tween, and transferred to a fresh tube and washed a final time with Round 1 TRIS buffer (50 mM TRIS; 50 mM CaCl2; 150 mM NaCl, pH 7.5).
MMP-14 binding antibodies were eluted from the beads by re-suspension in 1 mL 2% MTRIS containing 2.5 μM TIMP-2 and incubation for 1 hour at RT with rotation. The beads were then washed three times with 2% MTRIS/0.1% Tween, transferred to a fresh tube and washed three times with TRIS/0.1% Tween, and transferred to a fresh tube and washed a final time with TRIS. 1 mL output was used for infection of 9 mL TG1 bacteria (grown to OD600=0.5). The beads were further eluted by suspension in 1 mL 100 mM TEA for 10 minutes. The supernatant was neutralized with 500 μl TRIS/HCl pH 7.5. 1 mL of the second elution was used for infection of 9 mL TG1 bacteria (grown to OD600=0.5).
Two additional rounds of selection were carried out under the same conditions as the first round, except that the streptavidin beads were loaded with 100 nM biotinylated MMP-14 and the number of washes were doubled (6 times with 2% MTRIS/0.1% Tween, 6 times with TRIS/0.1% Tween and 2 times with TRIS), and Round 2/3 Tris buffer (50 mM TRIS; 5 mM CaCl2; 150 mM NaCl pH=7.5) was used for incubation and wash.
TIMP-2 was coupled to carboxylic beads, then complexed with a combination of biotinylated MMP-14 (500 nM each). The complexed beads were incubated with a 100 fold excess of FAB310 library that had been previously depleted by incubation with streptavidin beads and carboxylic beads. Elution/washing was carried out as for Strategy I.
Two additional rounds of selection were carried out, essentially as described for Strategy I, except that only 100 nM of each of MMP-14 were used in the bead complexes.
384-well plates were coated with biotinylated BSA (2 μg/ml in 50 mM TRIS; 5 mM CaCl2; 150 mM NaCl, pH 7.5), then washed 3 times with 50 mM TRIS; 5 mM CaCl2; 150 mM NaCl, pH 7.5; 0.1% Tween. Streptavidin was captured on the coated plates by incubation with 10 μg/mL streptavidin in 50 mM TRIS; 5 mM CaCl2; 150 mM NaCl pH 7.5; 0.5% Gelatin, followed by a wash with 50 mM TRIS; 5 mM CaCl2; 150 mM NaCl pH=7.5; 0.1% Tween. On the day the assay was to be performed, biotinylated MMP-14 (1 μg/ml) was captured in 50 mM TRIS; 5 mM CaCl2; 150 mM NaCl, pH 7.5.
95 clones were picked from each of Round 2 and Round 3 of each selection strategy, producing 12 masterplates. ELISA was run on the MiniTrak-5 deck according to SOP.

| bind to human MMP-14 | Molecule |
| --- | --- |
| bind to human MMP-14 | B1 |
| bind to human MMP-14 | B2 |
| bind to human MMP-14 | B3 |
| bind to human MMP-14 | B4 |
| bind to human MMP-14 | B5 |
| bind to human MMP-14 | B6 |
| bind to human MMP-14 | B7 |
| bind to human MMP-14 | B8 |
| bind to human MMP-14 | B9 |
| bind to human MMP-14 | B10 |
| bind to human MMP-14 | B11 |
| bind to human MMP-14 | B12 |
